Test results as given in patent US20040053822A1 (published 2004).
Like-named read-outs stand apart in the source and are kept apart here.

What was measured:
HLA-DRB1*0101 = HLA-DRB1*0101 (human); test: inhibition of 125I-probe binding to purified HLA-DR
HLA-A*0201 [1] = target: HLA-A*0201 (human); test: competition with 125I probe peptide, purified HLA
HLA-A*0202 = HLA-A*0202 (human); test: competition with 125I probe peptide, purified HLA
HLA-B*5101 = HLA-B*5101 (human); test: competition vs 125I probe peptide, purified HLA
HLA-B*3501 = HLA-B*3501 (human); test: competition vs 125I probe peptide, purified HLA
HLA-B*5301 = HLA-B*5301 (human); test: competition vs 125I probe peptide, purified HLA
HLA-B*5401 = HLA-B*5401 (human); test: competition vs 125I probe peptide, purified HLA
HLA-A*0201 [2] = target: HLA-A*0201 (human); test: competition with 125I-labelled probe peptide for purified HLA-A*0201
HLA-DRB1*0301 [3] = target: HLA-DRB1*0301 (human); test: inhibition of 125I probe peptide binding to purified HLA
HLA-DRB1*0301 [4] = target: HLA-DRB1*0301 (human); test: as above; remark: listed apart in the source
HLA-A*0206 = HLA-A*0206 (human); test: competition with 125I probe peptide, purified HLA
HLA-A*6802 = HLA-A*6802 (human); test: competition with 125I probe peptide, purified HLA
HLA-B*0702 = HLA-B*0702 (human); test: competition vs 125I probe peptide, purified HLA
HLA-A*0203 = HLA-A*0203 (human); test: competition with 125I probe peptide, purified HLA
HLA-A*0201 [5] = target: HLA-A*0201 (human); test: competition with 125I probe peptide, purified HLA, gel filtration

Binder	IC50 (HLA-B*3501) [nM]	IC50 (HLA-B*5301) [nM]	IC50 (HLA-B*5401) [nM]	further results
LLIIVLAIIAIEGDC [MAGE2.201 (15-mer)]				IC50 (HLA-DRB1*0101): ≤ 1000 nM
HLYIFATCLGL [MAGE3.174 11-mer HLYIFATCLGL]				IC50 (HLA-A*0201 [1]): 56 nM; IC50 (HLA-A*0202): 741 nM
FPHISYPPL [MAGE2.296.F1 FPHISYPPL]				IC50 (HLA-B*5101): 177 nM
FPHISYPPI [MAGE3.296.F1I9 FPHISYPPI]	360	233	1.4	
GLEARGEAL [MAGE2 peptide, position 15, 9 amino acids]				relative binding ratio (HLA-A*0201 [2]): 0.0001 ratio
IIAIEGDCAPEEKIW				relative binding ratio (HLA-DRB1*0301 [3]): 0.066 IC50 standard/IC50 peptide; relative binding ratio (HLA-DRB1*0301 [4]): 0.066 IC50 standard/IC50 peptide
ALIETSYVKV [MAGE2.277 10-mer ALIETSYVKV]				IC50 (HLA-A*0202): 729 nM; IC50 (HLA-A*0206): 1950 nM; IC50 (HLA-A*6802): 3080 nM
FPIGHLYII [MAGE3.170.F1I9 FPIGHLYII]			0.6	IC50 (HLA-B*5101): 5 nM
FPKAGLLIIV [MAGE3.196.F1 FPKAGLLIIV]	878	4650	1.1	IC50 (HLA-B*0702): 220 nM; IC50 (HLA-B*5101): 190 nM
FPKAGLLIII [MAGE3.196.F1I10 FPKAGLLIII]		846		IC50 (HLA-B*5101): 65 nM
FPLWSQSI [MAGE3.77.F1 FPLWSQSI]	1010	245		IC50 (HLA-B*0702): 122 nM
LIIVLAIIAIEGDCA [MAGE2.202 (15-mer)]				IC50 (HLA-DRB1*0101): ≤ 1000 nM
KIWEELSML [MAGE2.220 9-mer KIWEELSML]				IC50 (HLA-A*0202): 642 nM; IC50 (HLA-A*0203): 175 nM
FPRALIETSYI [MAGE2.274.F1I11 FPRALIETSYI]	3600	465	127	IC50 (HLA-B*0702): 7.4 nM; IC50 (HLA-B*5101): 70 nM
FPRALIETSYV [MAGE2.274.F1 FPRALIETSYV]	4500	7750		IC50 (HLA-B*5101): 128 nM
FPRALVETSYI [MAGE3.274.F1I11 FPRALVETSYI]	5540	620	59	
FPRALVETSYV [MAGE3.274.F1 FPRALVETSYV]	4240			
FPIGHLYIFA [MAGE3.170.F1 FPIGHLYIFA]	51	179	0.4	IC50 (HLA-B*0702): 39 nM; IC50 (HLA-B*5101): 56 nM
FPIGHLYIFI [MAGE3.170.F1I10 FPIGHLYIFI]	139	8.5		
FPTTMNYPLW [MAGE3.71.F1 FPTTMNYPLW]				IC50 (HLA-B*0702): 220 nM
GLEARGEAL [MAGE3 peptide, position 15, 9 amino acids]				relative binding ratio (HLA-A*0201 [5]): 0.0001 ratio (IC50 standard / IC50 test peptide)
FPQGASSI [MAGE3.64.F1 FPQGASSI]		3000	400	
FPKAGLLI [MAGE3.196.F1I8 FPKAGLLI]		775	46	
FPKTGLLI [MAGE2.196.F1I8 FPKTGLLI]		3320		IC50 (HLA-B*0702): 134 nM
FPTTMNYPL [MAGE3.71.F1 FPTTMNYPL]	4.5	39	3	IC50 (HLA-B*0702): 6.4 nM; IC50 (HLA-B*5101): 423 nM
FPTTMNYPI [MAGE3.71.F1I9 FPTTMNYPI]		8.5	1.5	IC50 (HLA-B*0702): 59 nM
KLAELVHFL [MAGE3.112L2 KLAELVHFL]				IC50 (HLA-A*0203): 5.9 nM; IC50 (HLA-A*6802): 400 nM
KLAELVHFV [MAGE3.112L2V9 KLAELVHFV]				IC50 (HLA-A*6802): 73 nM
KMAELVHFV [MAGE3.112M2V9 KMAELVHFV]				IC50 (HLA-A*0203): 46 nM; IC50 (HLA-A*0206): 39 nM
